Consider one protein from paper PMC3799859, “Sigma-1 Receptor Chaperone at the ER-Mitochondrion Interface Mediates the Mitochondrion-ER-Nucleus Signaling for Cellular Survival” (PLoS ONE, 2013).

This data set concerns the molecule itself. Put plainly: non-reducing gel and blot of the purified protein; ΔIRE1-V5/His purified on a Ni column, non-reducing condition (without β-mercaptoethanol).

B1: ΔIRE1-V5/His (ER lumenal domain of human IRE1) (domain or fragment, UniProt O75460 19-443, looked up)
chain: IFGSTSTVTLPETLLFVSTLDGSLHAVSKRTGSIKWTLKEDPVLQVPTHVEEPAFLPDPNDGSLYTLGSKNNEGLTKLPFTIPELVQASPCRSSDGILYMGKKQDIWYVIDLLTGEKQQTLSSAFADSLCPSTSLLYLGRTEYTITMYDTKTRELRWNATYFDYAASLPEDDVDYKMSHFVSNGDGLVVTVDSESGDVLWIQNYASPVVAFYVWQREGLRKVMHINVAVETLRYLTFMSGEVGRITKWKYPFPKETEAKSKLTPTLYVGKYSTSLYASPSMVHEGVAVVPRGSTLPLLEGPQTDGVTIGDKGECVITPSTDVKFDPGLKSKNKLNYLRNYWLLIGHHETPLSASTKMLERFPNNLPKHRENVIPADSEKKSFEEVINLVDQTSENAPTTVSRDVEEKPAHAPARPEAPVDSMLKD
notes: human IRE1, lumenal domain (ΔIRE1), lacking the cytoplasmic domain; Most of the purified protein is a dimer under non-reducing conditions; a portion was pretreated with β-mercaptoethanol to keep it monomeric; source: CHO, transfected (pcDNA3.1); in lysate, or purified from the cell extract on Ni-NTA agarose; not shown: V5, C-terminal, kept; His, C-terminal, kept
Consider B1, for which the “stoichiometry N” value came to 2.

For orientation: stoichiometry N means the number of molecules, sites or subunits per partner or assembly.
